We go through two molecules from patent US20230049732A1 (UNIVERSITY OF LOUISVILLE RESEARCH FOUNDATION, published 2023).

Experiment [1] addresses T1, HPV16 VLPs (human papillomavirus type 16, UniProt P03101 1-505).
T1 construct: Specificity control; also called human papillomavirus VLPs
T1 sequence: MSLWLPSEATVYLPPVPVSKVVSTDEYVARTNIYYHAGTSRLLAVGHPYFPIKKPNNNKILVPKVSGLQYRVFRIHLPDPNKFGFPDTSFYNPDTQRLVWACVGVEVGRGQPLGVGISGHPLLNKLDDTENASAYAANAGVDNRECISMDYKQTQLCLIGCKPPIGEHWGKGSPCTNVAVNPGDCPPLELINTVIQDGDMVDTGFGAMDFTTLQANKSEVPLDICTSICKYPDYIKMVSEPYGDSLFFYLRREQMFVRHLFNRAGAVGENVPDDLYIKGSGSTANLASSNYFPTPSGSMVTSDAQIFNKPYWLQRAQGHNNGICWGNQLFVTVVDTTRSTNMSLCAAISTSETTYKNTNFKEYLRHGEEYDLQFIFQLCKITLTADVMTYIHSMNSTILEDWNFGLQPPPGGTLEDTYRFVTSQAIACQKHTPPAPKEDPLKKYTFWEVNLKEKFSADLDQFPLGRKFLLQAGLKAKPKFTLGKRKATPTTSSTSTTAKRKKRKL
Put plainly: ELISA, intact VLPs coated, hybridoma supernatant. In general terms: An ELISA detects its analyte on a solid surface through an enzyme-linked reagent.

Experiment [2] concerns the target T2, F401-VLPs of parvovirus B19 (parvovirus B19 genotype 1 (mutated), UniProt P07299 228-781).
T2 construct: also called F401-B19V; construct A
T2 chain: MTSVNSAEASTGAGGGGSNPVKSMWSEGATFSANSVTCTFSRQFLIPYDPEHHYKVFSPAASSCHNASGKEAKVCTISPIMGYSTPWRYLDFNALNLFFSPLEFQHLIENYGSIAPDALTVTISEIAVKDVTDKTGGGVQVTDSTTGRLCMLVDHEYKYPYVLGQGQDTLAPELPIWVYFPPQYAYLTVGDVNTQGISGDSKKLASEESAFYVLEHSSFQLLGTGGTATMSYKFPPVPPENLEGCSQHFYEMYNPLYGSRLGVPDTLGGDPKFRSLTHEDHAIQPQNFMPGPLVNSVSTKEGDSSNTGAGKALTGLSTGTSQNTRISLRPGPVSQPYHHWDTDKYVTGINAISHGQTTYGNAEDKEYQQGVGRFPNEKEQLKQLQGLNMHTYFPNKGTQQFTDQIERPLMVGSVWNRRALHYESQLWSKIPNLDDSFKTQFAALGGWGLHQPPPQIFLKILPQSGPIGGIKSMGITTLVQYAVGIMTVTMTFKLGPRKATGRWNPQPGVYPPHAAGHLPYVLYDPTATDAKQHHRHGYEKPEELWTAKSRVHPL
As to the kind of experiment: ELISA, intact VLPs coated, hybridoma supernatant.

A further experiment addresses T3, KEYA368A369-VLPs of B19V (parvovirus B19 genotype 1 (mutated), UniProt P07299 228-781).
T3 construct: also called construct D
T3 chain: T2 chain with Q368A, Q369A, F401Y
Put plainly: ELISA, intact VLPs coated, hybridoma supernatant.

In experiment [3] the target is T4, N399N400F401TDT404-VLPs of parvovirus B19 (parvovirus B19 genotype 1 (mutated), UniProt P07299 228-781).
T4 construct: also called NNF401TDT-B19V; NNF401TDT
T4 chain: T2 chain with Q399N, Q400N, Q404T
As to the kind of experiment: ELISA, intact VLPs coated, hybridoma supernatant.

Experiment [4] addresses T1, HPV16 VLPs. As to the kind of experiment: ELISA, VLPs coated.

Where a chain is given by its changes, count along the chain named.

B1: MAb #91 (antibody, V domains shown)
VH: EVQLQQSGPELVKPGASVKISCKASGYSFTDYFMNWVKQSHGKSLEWIGRINPYNGDSFYNQNFRGSVTLTVDKSSGTAHMELLSLTSEDSTVYYCGAYRYDGYAMDYWGQGTSVTVSS
VL: DVVMTQTPLSLPVSLGDQASISCRSSQSLVHSDGNTYLHWYLQKPGQSPKLLIYKVSNRFSGVPDRFSGSGSGTDFTLKISRVEAEDLGVYFCSQSTHVPFTFGSGTKLEIK
notes: Murine hybridoma antibody, supernatant; also called antibody 91
For the molecule B1, the “ELISA absorbance (405 nm)” value was determined as 0.005 with HPV16 VLPs [1], 3.01 in experiment [2], 2.59 with KEYA368A369-VLPs of B19V and 3.86 in experiment [3]. For the same molecule, the binding result with HPV16 VLPs [4] is on record as “no binding”.

B2: MAb #25 (antibody, V domains shown)
VH: QVQLQQPGAELVRPGASVKLSCKASGYTFTNYWMHWVKQRPEQGLEWIGRIDPYDSETHYNQKFKDKAILTVDTSSNTAYMQLSSLTSEDSAVYYCTSYYYGSNYVWHFDVWGAGTTVTVSS
VL: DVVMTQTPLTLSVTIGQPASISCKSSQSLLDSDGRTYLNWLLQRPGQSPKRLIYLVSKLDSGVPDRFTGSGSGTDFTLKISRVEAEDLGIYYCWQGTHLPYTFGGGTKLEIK
notes: Murine hybridoma antibody, supernatant; also called antibody 25
On to B2, for which the “ELISA absorbance (405 nm)” value with HPV16 VLPs [1] was determined as 0.009; in experiment [2], 3.82; with KEYA368A369-VLPs of B19V, 2.79; in experiment [3] it was 3.26. In addition, the binding result in the experiment with HPV16 VLPs [4] is “no binding”.
